Laboratory results published in patent publication US20230125550A1 (ARCELLX, published 2023).

T1: AFP p26 (human, UniProt P02771 381-609)
T1 construct: The construct used is not described
T1 sequence: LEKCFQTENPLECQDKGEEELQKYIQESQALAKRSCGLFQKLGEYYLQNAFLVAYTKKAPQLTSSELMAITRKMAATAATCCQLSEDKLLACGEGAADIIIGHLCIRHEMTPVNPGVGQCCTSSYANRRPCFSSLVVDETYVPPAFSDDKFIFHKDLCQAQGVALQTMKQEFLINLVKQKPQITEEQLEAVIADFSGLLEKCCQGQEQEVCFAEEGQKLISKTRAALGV


Target: T1, AFP p26
Assay: phage ELISA, A450 target/A450 IgG1-Fc
Procedure, shortened: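 Phage rescued with VCSM13 helper phage from phagemid colonies picked from panning output were tested on plates coated with goat anti-human IgG1-Fc antibody that carried either recombinant human target or IgG1-Fc. Bound phage were detected with HRP-conjugated anti-M13 antibody at 450 nm. The ELISA ratio is target absorbance over IgG1-Fc absorbance, averaged across all screened wells holding the clone.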

ELISA_avg	Binder
25.4 ratio	SEQ ID NO 810 (designed binder) MGSWSEFTDRLFAIEDRLLALGGSEAELAAFEKEIAAFESELQAYKGKGNPEVEDLRMHAASIRLWLQAYRHN
19.2 ratio	SEQ ID NO 824 (designed binder) MGSWENFKDTLAWIKEYLEALGGSEAELAGFEHRIAIFEHYLQYYKGKGNPEVEALRKEAAAIRDELQAYRHN
23.4 ratio	SEQ ID NO 835 (designed binder) MGSWKLFKYELAWIKWRLEALGGSEAELADFEASIAQFEKYLQTYKGKGNPEVEALRKEAAAIRDELQAYRHN
31.1 ratio	SEQ ID NO 836 (designed binder) MGSWYLFKNELAWIKWRLEALGGSEAELADFEMVIAMFEDHLQEYKGKGNPEVEALRKEAAAIRDELQAYRHN
25.3 ratio	SEQ ID NO 790 (designed binder) MGSWAEFSDRLNAIDQRLWALGGSEAELAAFEKEIAAFESELQAYKGKGNPEVEILREHAAEIRKFLQAYRHN
33.4 ratio	SEQ ID NO 791 (designed binder) MGSWMEFNHRLQAIDGRLWALGGSEAELAAFEKEIAAFESELQAYKGKGNPEVEMLREHAAAIRAFLQAYRHN
8 ratio	SEQ ID NO 819 (designed binder) MGSWHHFKYFLADIKSILEALGGSEAELAIFEVQIAYFEDLLQSYKGKGNPEVEALRKEAAAIRDELQAYRHN
12.1 ratio	SEQ ID NO 839 (designed binder) MGSWTLFKWDLAFIKWQLEALGGSEAELAWFEYEIAAFEDSLQNYKGKGNPEVEALRKEAAAIRDELQAYRHN
23.3 ratio	SEQ ID NO 840 (designed binder) MGSWILFKEDLAFIKWQLEALGGSEAELAWFETTIANFESDLQKYKGKGNPEVEALRKEAAAIRDELQAYRHN
20.2 ratio	SEQ ID NO 818 (designed binder) MGSWSIFKYHLADIKLLLEALGGSEAELAYFEFLIADFEFTLQDYKGKGNPEVEALRKEAAAIRDELQAYRHN
20.1 ratio	SEQ ID NO 817 (designed binder) MGSWYEFDHRLMAISFRLVALGGSEAELAAFEKEIAAFESELQAYKGKGNPEVETLRRRAANIRHLLQAYRHN
31.5 ratio	SEQ ID NO 822 (designed binder) MGSWADFKWTLAYIKHRLEALGGSEAELAFFEMEIAYFEQSLQNYKGKGNPEVEALRKEAAAIRDELQAYRHN
13.8 ratio	SEQ ID NO 825 (designed binder) MGSWVLFKDYLADIKHYLEALGGSEAELANFEHLIANFEGDLQTYKGKGNPEVEALRKEAAAIRDELQAYRHN
20.8 ratio	SEQ ID NO 837 (designed binder) MGSWVYFKAHLAFIKWELEALGGSEAELANFESTIAEFEKYLQVYKGKGNPEVEALRKEAAAIRDELQAYRHN
27.4 ratio	SEQ ID NO 804 (designed binder) MGSWYEFYLRLSAIEDRLFALGGSEAELAAFEKEIAAFESELQAYKGKGNPEVESLRVQAAHIRTWLQAYRHN
26.9 ratio	SEQ ID NO 806 (designed binder) MGSWHEFWVRLEAIESRLFALGGSEAELAAFEKEIAAFESELQAYKGKGNPEVESLRVQAAHIRSWLQAYRHN
31.9 ratio	SEQ ID NO 805 (designed binder) MGSWYEFYDRLDAIEDRLFALGGSEAELAAFEKEIAAFESELQAYKGKGNPEVESLRDQAAYIRTWLQAYRHN
28.7 ratio	SEQ ID NO 808 (designed binder) MGSWVEFYERLNAIEYRLEALGGSEAELAAFEKEIAAFESELQAYKGKGNPEVESLREHAAYIRQWLQAYRHN
28.5 ratio	SEQ ID NO 807 (designed binder) MGSWVEFYHRLEAIEQRLMALGGSEAELAAFEKEIAAFESELQAYKGKGNPEVESLREQAAAIRSWLQAYRHN
8.54 ratio	SEQ ID NO 816 (designed binder) MGSWGEFTVRLYAIDRRLDALGGSEAELAAFEKEIAAFESELQAYKGKGNPEVEELRRFAAIIRAFLQAYRHN
30.1 ratio	SEQ ID NO 841 (designed binder) MGSWYFFKSRLAYIKVYLEALGGSEAELAGFEWEIAHFEEWLQRYKGKGNPEVEALRKEAAAIRDELQAYRHN

ELISA_avg	Binder
29.6 ratio	SEQ ID NO 842 (designed binder) MGSWYIFKSELAWIKWYLEALGGSEAELANFEVEIATFETWLQGYKGKGNPEVEALRKEAAAIRDELQAYRHN
22.9 ratio	SEQ ID NO 811 (designed binder) MGSWHEFYDRLYAIWDRLDALGGSEAELAAFEKEIAAFESELQAYKGKGNPEVEGLRNAAAVIRIFLQAYRHN
19.4 ratio	SEQ ID NO 843 (designed binder) MGSWYIFKQELASIKLSLEALGGSEAELAHFEAEIAWFEWWLQWYKGKGNPEVEALRKEAAAIRDELQAYRHN
19.8 ratio	SEQ ID NO 838 (designed binder) MGSWMYFKSHLAWIKWELEALGGSEAELAFFEDNIAQFEYWLQLYKGKGNPEVEALRKEAAAIRDELQAYRHN
29.5 ratio	SEQ ID NO 829 (designed binder) MGSWVLFKQELAWIKWLLEALGGSEAELAAFEEQIARFEHDLQKYKGKGNPEVEALRKEAAAIRDELQAYRHN
33.3 ratio	SEQ ID NO 833 (designed binder) MGSWLLFKSDLAWIKWRLEALGGSEAELAEFEESIAMFEHWLQEYKGKGNPEVEALRKEAAAIRDELQAYRHN
25.7 ratio	SEQ ID NO 832 (designed binder) MGSWLLFKSELAWIKWYLEALGGSEAELAEFEWNIAEFEKNLQKYKGKGNPEVEALRKEAAAIRDELQAYRHN
25.8 ratio	SEQ ID NO 831 (designed binder) MGSWFLFKSELAWIKWRLEALGGSEAELAYFEYQIAEFEFWLQSYKGKGNPEVEALRKEAAAIRDELQAYRHN
22.5 ratio	SEQ ID NO 830 (designed binder) MGSWVLFKQELAWIKWYLEALGGSEAELAAFEWEIAAFEQRLQIYKGKGNPEVEALRKEAAAIRDELQAYRHN
21.2 ratio	SEQ ID NO 834 (designed binder) MGSWLYFKSDLAWIKWRLEALGGSEAELADFEEAIAEFEQALQIYKGKGNPEVEALRKEAAAIRDELQAYRHN
11.4 ratio	SEQ ID NO 823 (designed binder) MGSWAYFKGQLAYIKSGLEALGGSEAELAYFELRIAYFEHWLQNYKGKGNPEVEALRKEAAAIRDELQAYRHN
18.1 ratio	SEQ ID NO 827 (designed binder) MGSWEHFKVELAGIKAYLEALGGSEAELALFEWAIADFESILQDYKGKGNPEVEALRKEAAAIRDELQAYRHN
15.9 ratio	SEQ ID NO 828 (designed binder) MGSWIYFKDELAGIKKYLEALGGSEAELAMFEVAIADFEAILQKYKGKGNPEVEALRKEAAAIRDELQAYRHN
13.3 ratio	SEQ ID NO 820 (designed binder) MGSWLYFKYNLAVIKHWLEALGGSEAELAIFEMSIADFEYELQWYKGKGNPEVEALRKEAAAIRDELQAYRHN
20 ratio	SEQ ID NO 809 (designed binder) MGSWVEFYHRLDAIFDRLDALGGSEAELAAFEKEIAAFESELQAYKGKGNPEVEELRANAAGIRSWLQAYRHN
13.7 ratio	SEQ ID NO 821 (designed binder) MGSWFYFKYELAWIKHWLEALGGSEAELASFETHIAFFEHQLQYYKGKGNPEVEALRKEAAAIRDELQAYRHN
19.6 ratio	SEQ ID NO 826 (designed binder) MGSWSLFKHRLANIKVYLEALGGSEAELADFETFIAYFEKDLQEYKGKGNPEVEALRKEAAAIRDELQAYRHN
15.2 ratio	SEQ ID NO 812 (designed binder) MGSWFEFSNRLYAIWHRLTALGGSEAELAAFEKEIAAFESELQAYKGKGNPEVESLRTQAAFIRILLQAYRHN
10.9 ratio	SEQ ID NO 814 (designed binder) MGSWFEFEDRLFAIWTRLEALGGSEAELAAFEKEIAAFESELQAYKGKGNPEVESLRQSAASIRWLLQAYRHN
19 ratio	SEQ ID NO 813 (designed binder) MGSWFEFSDRLYAIWERLDALGGSEAELAAFEKEIAAFESELQAYKGKGNPEVESLRFQAAFIRYQLQAYRHN
8.21 ratio	SEQ ID NO 815 (designed binder) MGSWHEFSERLFAIWTRLEALGGSEAELAAFEKEIAAFESELQAYKGKGNPEVEALRQSAAFIRVMLQAYRHN
